Measured values reported in paper PMC7901475.

Target: T1, PsdR (Pseudomonas aeruginosa PAO1?) (UniProt Q9HVS2)
T1 sequence: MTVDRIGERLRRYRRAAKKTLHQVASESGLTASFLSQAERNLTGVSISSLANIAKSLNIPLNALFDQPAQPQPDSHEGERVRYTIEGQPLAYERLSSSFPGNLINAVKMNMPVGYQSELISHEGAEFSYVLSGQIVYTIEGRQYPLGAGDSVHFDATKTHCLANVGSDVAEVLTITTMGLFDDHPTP
Test: EMSA
Settings: EMSA: 0.5 nM Cy5 probe, 10 mM Tris-HCl pH 8, 50 mM KCl, 10 mM MgCl2, 10% glycerol, 0.1 mg/ml BSA, 25 ng/ul poly(dI-dC), 15 min at 25 C; competition with 100 nM …

Sequence | binding
CCCGAACCCCTATTTTTAAGTGTGACTGAAAATTTGTTTTGACCTGAATCAGTTCTCGACTTAAATTTCAGCCCGGTCCAGACGAGGAGAACA (double strand) [pPA4498 (mdpA promoter) half-site mutant] | binds more weakly
CCCGAACCCCTATTTTTAAGTGTGACTGAAAATTTGTTTTGACCTGAATTTAAGCTCGACTTAAATTTCAGCCCGGTCCAGACGAGGAGAACA (double strand) [pPA4498 (mdpA promoter) wild type] | binds
